Reference: patent US20060240053

T1: peptide substrate EFDLELIEED (SEQ ID NO: 31)
T1 chain: EFDLELIEED

T2: RP2 retropepsin inhibitor Ac-Leu-Leu-Met-aldehyde (Bachem N 1315.0005)
T2 chain: LLM

T3: RP1 retropepsin inhibitor Ac-Leu-Val-Phe-aldehyde (Bachem N 1395.0005)
T3 chain: LVF

T4: RP3 retropepsin inhibitor Ac-Leu-Leu-Nle-aldehyde (Bachem N 1320.0005)
T4 chain: LLX

T5: corneodesmosin extracted from human stratum corneum, Q15517
T5 chain: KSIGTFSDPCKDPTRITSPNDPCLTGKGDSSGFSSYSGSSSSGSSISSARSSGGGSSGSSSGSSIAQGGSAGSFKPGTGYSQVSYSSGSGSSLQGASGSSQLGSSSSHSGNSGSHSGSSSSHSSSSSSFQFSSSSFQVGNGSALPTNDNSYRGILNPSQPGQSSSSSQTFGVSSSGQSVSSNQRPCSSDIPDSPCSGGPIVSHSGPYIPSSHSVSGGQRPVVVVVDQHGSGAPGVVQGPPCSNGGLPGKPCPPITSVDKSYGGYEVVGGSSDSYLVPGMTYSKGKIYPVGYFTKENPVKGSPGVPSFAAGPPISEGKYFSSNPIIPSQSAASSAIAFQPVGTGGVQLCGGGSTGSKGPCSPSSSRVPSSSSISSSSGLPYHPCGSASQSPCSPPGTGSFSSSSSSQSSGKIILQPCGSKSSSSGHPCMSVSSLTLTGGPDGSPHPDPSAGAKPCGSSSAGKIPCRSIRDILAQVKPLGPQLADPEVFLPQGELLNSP

B1: recombinant fusion protein GST-SASPase delta1-84 (SEQ ID NO: 4) (protein)
chain: MAGSGARSEEGRRQHAFVPEPFDGANVVPNLWLHSFEVINDLNHWDHITKLRFLKESLRGEALGVYNRLSPQDQGDYGTVKEALLKAFGVPGAAPSHLPKEIVFANSMGKGYYLKGKIGKVPVRFLVDSGAQVSVVHPNLWEEVTDGDLDTLQPFENVVKVANGAEMKILGVWDTAVSLGKLKLKAQFLVANASAEEAIIGTDVLQDHNAILDFEHRTCTLKGKKFRLLPVGGSLEDEFDLELIEEDPSSEEGRQELSH
B2: activated SASPase (SEQ ID NO: 6) (protein)
chain: ANSMGKGYYLKGKIGKVPVRFLVDSGAQVSVVHPNLWEEVTDGDLDTLQPFENVVKVANGAEMKILGVWDTAVSLGKLKLKAQFLVANASAEEAIIGTDVLQDHNAILDFEHRTCTLKGKKFRLLPVGGSLEDEFDLE

How the values were obtained:
[1] = target: T1, peptide substrate EFDLELIEED (SEQ ID …)
[2] = target: peptide substrates with amino acid substitutions (among SEQ ID NO: 32, 33, 34, 35)
[3] = target: T2, RP2 retropepsin inhibitor …
[4] = target: T3, RP1 retropepsin inhibitor …
[5] = target: T4, RP3 retropepsin inhibitor …
[6] = target: T5, corneodesmosin extracted from human …
[7] = target: casein substrate sold under the name Enzchek (Molecular Probes)
[8] = target: oxidized beta-chain of insulin (Sigma)
Sequence of oxidized beta-chain of insulin (Sigma) (chain, as listed by the source): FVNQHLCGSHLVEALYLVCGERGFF

| Protein | hydrolysis of quenched peptide substrate (fluorescence 340/450 nm) [1] | hydrolysis of quenched peptide substrate (fluorescence 340/450 nm) [2] | autocleavage in acetate buffer pH 4.5, SDS-PAGE over time | kinetics for casein hydrolysis (fluorescence 485/535 nm) [3] | kinetics for casein hydrolysis (fluorescence 485/535 nm) [4] | kinetics for casein hydrolysis (fluorescence 485/535 nm) [5] | % Residual corneodesmosin T24 h/T0*100 [6] | caseinolytic activity [7] | hydrolysis of the substrate followed by HPLC [8] |
| --- | --- | --- | --- | --- | --- | --- | --- | --- | --- |
| B1 | the natural (wt) peptide is effectively hydrolyzed by the SASPase | amino acid substitutions in the sequence of this peptide can generate substrates for which the SASPase has greater affinity | A decrease in the whole form GST-SASPase C27 is observed over time, which demonstrates an autocleavage and, consequently, an autoactivation | – | – | – | – | – | – |
| B2 | – | – | – | the kinetics for casein hydrolysis, in the presence of the RP1 and RP2 retropepsin inhibitors, are lower than the control | the kinetics for casein hydrolysis, in the presence of the RP1 and RP2 retropepsin inhibitors, are lower than the control | the kinetics for casein hydrolysis, in the presence of the RP3 retropepsin inhibitor, are significantly higher than those obtained under the control conditions | 75% | Its caseinolytic activity was, moreover, demonstrated (results not shown) | These results show that the activated SASPase is capable of degrading insulin |
